# Experimental data taken from patent publication US20220228164A1, “ENGINEERED ANTIGEN PRESENTING CELLS” (Neogene Therapeutics B.V., priority 2021, published 2022).
# B1: CD40L transgene: hCD40L transgene expressed in BCL-6/BCL-xL immortalized B cells (protein)
# DNA: MIETYNQTSPRSAATGLPISMKIFMYLLTVFLITQMIGSALFAVYLHRRLDKIEDERNLHEDFVFMKTIQRCNTGERSLSLLNCEEIKSQFEGFVKDIMLNKEETKKENSFEMQKGDQNPQIAAHVISEASSKTTSVLQWAEKGYYTMSNNLVTLENGKQLTVKRQGLYYIYAQVTFCSNREASSQAPFIASLCLKSPGRFERILLRAANTHSSAKPCGQQSIHLGGVFELQPGASVFVNVTDPSQVSHGTGFTSFGLLKL
# Key:
# [1] = system: NY-ESO 5B8 TCR transduced Jurkat cells; assay: TMG-expressing BCL-6/BCL-xL B cells with or without CD40L, co-culture with TCR Jurkat cells, CD69 (Example 7); assay type: cell-based, human; details: BCL-6/BCL-xL immortalized B cells, two donors, 20 hours
# Protocol: (§1) B cells from two healthy donors are isolated and immortalized by transduction with BCL-6/BCL-xL as described in Example 5 and 10 of this invention. In this Example, B cells are either transduced with BCL-6/BCL-xL alone or in combination with a CD40L transgene. After immortalization B cells are transduced with different TMG constructs encoding different numbers of 25mer polypeptides (1, 3, 12 or 40) and including LAMP1 signaling and transmembrane sequences. 96 hours post-transductions TMG-expressing B cells are enriched by antibiotic resistance selection as described in Examples 5 and 10. […]
# (§2) TCR expressing Jurkat T cells specific for two NY-ESO-1 derived T cell epitopes (5B8 epitope SLLMWITQCFLPVF; SEQ ID NO: 3; MHC-class II restricted T cell epitope and 1G4 epitope SLLMWITQC; SEQ ID NO: 4; MHC-class I restricted T cell epitope) are generated as described in Examples 5 and 10. […] After co-culture, CD69 expression by TCR transduced Jurkat T cells is measured by flow cytometry.
# (§3) FIG. 11A is Donor 1: NY-ESO 1G4 TCR transduced T cell reactivity towards TMG transduced BCL-6/BCL-XL immortalized B cells with or without CD40L. […] NY-ESO 1G4 TCR transduced Jurkat cells directed against one of the epitopes presented on Class I were then co-cultured with the B cells and reactivity was assessed by flowcytometry focusing on upregulation of CD69 on T cells. […]
# [2] = system: NY-ESO 1G4 TCR transduced Jurkat cells; assay: as above; assay type: cell-based, human; details: BCL-6/BCL-xL immortalized B cells, two donors, 20 hours
# Protocol: as §1, §2, §3
molecule,measurement,setting,value
B1,MHC-class II antigen presentation (CD69 expression by TCR transduced Jurkat T cells),[1],can increase
same,MHC-class I antigen-presentation (CD69 expression by TCR transduced Jurkat T cells),[2],can increase
